Blank lines part the entries; values can stand above or below the molecule they belong to. Numbered stars: 1 amine (or outer) side, 2 acyl side, 3 side chain; on linkers, the order of the positions; unused ones are H or OH. Square brackets hold non-standard residues; d marks the D form. * marks the point of attachment. AzaAsn = aza-asparagine, NC(=O)CN(N[*:1])C(=O)[*:2]; (S,S)‑EPCOOEt = (S,S)-epoxide ethyl ester; CH:CH‑COOEt = CCOC(=O)/C=C/*; Suc = O=C(CCC(=O)[*:2])[*:1]; Cbz = O=C(OCc1ccccc1)*
Experiments:
human legumain = molecular target: T1, human legumain (human, UniProt Q99538 19-323, limits assumed); experiment: cell-based or functional assay
T1 sequence: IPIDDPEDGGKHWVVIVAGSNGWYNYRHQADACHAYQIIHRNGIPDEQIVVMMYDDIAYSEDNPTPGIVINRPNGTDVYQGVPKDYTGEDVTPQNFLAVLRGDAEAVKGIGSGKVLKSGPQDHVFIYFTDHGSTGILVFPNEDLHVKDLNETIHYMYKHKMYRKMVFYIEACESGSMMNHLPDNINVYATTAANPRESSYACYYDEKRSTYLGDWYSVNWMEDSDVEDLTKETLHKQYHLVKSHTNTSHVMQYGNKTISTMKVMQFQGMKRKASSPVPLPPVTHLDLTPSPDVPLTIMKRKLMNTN

[1] = molecular target: recombinant legumain (Homo sapiens (Human)) (UniProt Q99538); experiment: cell-based or functional assay
caspase 9, P55211 = molecular target: T2, caspase 9, P55211
T2 chain: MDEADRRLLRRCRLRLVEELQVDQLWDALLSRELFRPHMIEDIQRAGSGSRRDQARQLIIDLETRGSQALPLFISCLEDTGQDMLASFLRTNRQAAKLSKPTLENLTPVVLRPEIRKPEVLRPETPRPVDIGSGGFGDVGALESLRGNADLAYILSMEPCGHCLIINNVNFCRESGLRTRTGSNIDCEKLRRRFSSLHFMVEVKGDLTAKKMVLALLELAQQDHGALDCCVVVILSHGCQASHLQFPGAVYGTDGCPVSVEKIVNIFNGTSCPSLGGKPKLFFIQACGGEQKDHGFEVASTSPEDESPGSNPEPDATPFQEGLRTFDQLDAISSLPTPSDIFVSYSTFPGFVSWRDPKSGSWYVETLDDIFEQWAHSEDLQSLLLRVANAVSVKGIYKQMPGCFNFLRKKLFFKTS

[2] = molecular target: T3, αvβ3 integrin (added to the legumain activity assays), P06756
T3 chain 1: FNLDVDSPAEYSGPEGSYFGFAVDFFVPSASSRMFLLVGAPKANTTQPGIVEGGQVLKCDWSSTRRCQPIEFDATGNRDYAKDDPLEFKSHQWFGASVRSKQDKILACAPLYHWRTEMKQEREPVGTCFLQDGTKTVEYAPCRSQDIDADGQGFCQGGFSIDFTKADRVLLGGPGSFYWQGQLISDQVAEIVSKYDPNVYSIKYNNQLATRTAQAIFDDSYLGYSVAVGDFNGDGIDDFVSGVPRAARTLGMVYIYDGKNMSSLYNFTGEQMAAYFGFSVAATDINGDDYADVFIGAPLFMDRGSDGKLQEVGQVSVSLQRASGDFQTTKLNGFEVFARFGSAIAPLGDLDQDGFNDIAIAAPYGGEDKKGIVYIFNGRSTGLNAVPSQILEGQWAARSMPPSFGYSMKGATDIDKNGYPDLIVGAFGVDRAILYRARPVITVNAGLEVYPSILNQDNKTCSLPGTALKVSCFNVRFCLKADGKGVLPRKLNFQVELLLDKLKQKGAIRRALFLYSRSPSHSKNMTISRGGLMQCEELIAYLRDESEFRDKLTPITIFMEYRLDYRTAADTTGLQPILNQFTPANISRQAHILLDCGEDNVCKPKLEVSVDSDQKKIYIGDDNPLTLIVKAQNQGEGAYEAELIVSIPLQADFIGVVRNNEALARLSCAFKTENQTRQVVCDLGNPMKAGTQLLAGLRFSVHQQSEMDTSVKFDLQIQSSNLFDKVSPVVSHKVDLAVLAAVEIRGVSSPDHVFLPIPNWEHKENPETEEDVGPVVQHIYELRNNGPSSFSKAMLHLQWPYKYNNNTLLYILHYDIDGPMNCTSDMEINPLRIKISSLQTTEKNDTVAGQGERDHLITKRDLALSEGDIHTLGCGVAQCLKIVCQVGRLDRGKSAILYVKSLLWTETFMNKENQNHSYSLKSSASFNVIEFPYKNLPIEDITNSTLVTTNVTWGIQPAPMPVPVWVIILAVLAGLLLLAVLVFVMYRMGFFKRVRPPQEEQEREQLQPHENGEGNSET
T3 chain 2: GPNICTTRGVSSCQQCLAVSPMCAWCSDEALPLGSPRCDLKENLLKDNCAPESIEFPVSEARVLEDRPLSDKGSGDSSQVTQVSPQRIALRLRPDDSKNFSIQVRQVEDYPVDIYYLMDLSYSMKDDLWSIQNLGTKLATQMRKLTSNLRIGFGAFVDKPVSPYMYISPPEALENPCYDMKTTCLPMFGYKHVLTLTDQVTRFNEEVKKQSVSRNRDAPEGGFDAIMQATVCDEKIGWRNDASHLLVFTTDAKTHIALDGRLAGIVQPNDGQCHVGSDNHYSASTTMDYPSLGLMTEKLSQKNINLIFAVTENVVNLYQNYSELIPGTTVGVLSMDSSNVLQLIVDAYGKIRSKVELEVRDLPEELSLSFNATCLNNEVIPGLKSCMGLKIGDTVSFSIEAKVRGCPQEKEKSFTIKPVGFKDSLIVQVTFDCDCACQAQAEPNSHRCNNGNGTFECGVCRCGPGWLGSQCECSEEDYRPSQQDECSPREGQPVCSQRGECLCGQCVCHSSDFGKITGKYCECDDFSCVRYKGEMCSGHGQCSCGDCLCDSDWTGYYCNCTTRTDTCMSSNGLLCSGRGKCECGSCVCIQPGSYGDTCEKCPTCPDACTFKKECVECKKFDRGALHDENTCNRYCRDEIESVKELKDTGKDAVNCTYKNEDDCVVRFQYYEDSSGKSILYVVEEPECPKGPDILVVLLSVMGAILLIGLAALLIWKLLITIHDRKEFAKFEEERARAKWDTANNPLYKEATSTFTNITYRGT

progelatinase A, P08253 = molecular target: T4, progelatinase A, P08253
T4 chain: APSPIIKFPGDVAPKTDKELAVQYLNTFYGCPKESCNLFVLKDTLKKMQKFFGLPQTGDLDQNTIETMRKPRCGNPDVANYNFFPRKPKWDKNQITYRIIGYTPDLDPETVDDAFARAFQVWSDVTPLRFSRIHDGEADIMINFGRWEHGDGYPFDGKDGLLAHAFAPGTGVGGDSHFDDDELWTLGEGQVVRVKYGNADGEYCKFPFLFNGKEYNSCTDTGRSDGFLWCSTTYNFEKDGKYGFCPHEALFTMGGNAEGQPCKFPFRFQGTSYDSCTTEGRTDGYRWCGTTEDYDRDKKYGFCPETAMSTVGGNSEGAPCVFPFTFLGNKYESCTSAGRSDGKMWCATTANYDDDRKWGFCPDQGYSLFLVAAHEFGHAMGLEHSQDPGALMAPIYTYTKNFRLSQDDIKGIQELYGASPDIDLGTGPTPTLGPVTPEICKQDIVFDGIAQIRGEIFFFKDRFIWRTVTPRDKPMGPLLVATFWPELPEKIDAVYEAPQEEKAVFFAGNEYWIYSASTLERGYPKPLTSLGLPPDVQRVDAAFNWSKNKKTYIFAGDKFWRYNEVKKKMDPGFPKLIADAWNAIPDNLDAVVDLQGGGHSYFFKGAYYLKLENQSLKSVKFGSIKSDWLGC

recombinant legumain = molecular target: T5, recombinant legumain (Homo sapiens (Human), UniProt Q99538 19-323, limits assumed); experiment: cell-based or functional assay
T5 sequence: T1 sequence

Molecule: cystatin
- EC50 (µM) of LEG-3 for 50% cell death on Legumain+ 293 cells in the presence of cystatin (human legumain): 64.4 µM

- pH of peak legumain activity in the legumain:αvβ3 complex [1]: 6 pH
Molecule: αvβ3 integrin (added to the legumain activity assays) (from UniProt P06756 31-1048; P05106 27-788) (receptor)

B1: recombinant legumain (protein)
chain: T1 sequence
- cleavage of caspase 9 and loss of caspase 9 activity (caspase 9, P55211): legumain efficiently inactivates caspase 9 and depletes the cell of pro-caspase 9
- legumain amidolytic activity (hydrolysis of a substrate to a fluorescent product) [2]: binding of legumain to αvβ3 integrin can increase legumain activity nearly 100 fold
- cathepsin B activity toward small peptidyl substrates (cathepsin B, P07858): cathepsin B activity toward small peptidyl substrates is not affected
- zymogram: cleavage of MMP2 by legumain and legumain:αvβ3 (progelatinase A, P08253): legumain not only removes the pro-MMP2 propeptide but also cleaves MMP2 between its proteolytic domain and its integrin binding hemopexin domain

B2: LEG-3 (succinyl-Ala-Ala-Asn-Leu-doxorubicin) (peptide)
peptide: Suc-AANL-doxorubicin
modifications: not fully specified (residue 1); printed as succinyl-Ala-Ala-Asn-Leu-doxorubicin
- EC50 (µM), amount required for 50% cell death, Legumain+ 293 cells (human legumain): 3.2 µM

- IC50, amidolytic activity assay of recombinant legumain with fluorescent substrate (recombinant legumain): ~20 nM
Molecule: Cbz-Ala-Ala-[AzaAsn]-{(S,S)‑EPCOOEt} [AEPI-1 (Cbz-Ala-Ala-AzaAsn-(S,S)-EPCOOEt)]

- IC50, amidolytic activity assay of recombinant legumain with fluorescent substrate (recombinant legumain): ~21 nM
Molecule: Cbz-Ala-Ala-[AzaAsn]-{CH:CH‑COOEt} (SMILES CCOC(=O)/C=C/C(=O)N(CC(N)=O)NC(=O)[C@H](C)NC(=O)[C@H](C)NC(=O)OCc1ccccc1) [AEPI-2 (Cbz-Ala-Ala-AzaAsn-CH=CH-COOEt)]

- IC50, amidolytic activity assay of recombinant legumain with fluorescent substrate (recombinant legumain): 158 nM
Molecule: Cbz-Ala-Ala-[AzaAsn]-{CH:CH‑CON(CH3)Bzl} [AEPI-4 (Cbz-Ala-Ala-AzaAsn-CH=CH-CON(CH3)Bzl)]

- IC50, amidolytic activity assay of recombinant legumain with fluorescent substrate (recombinant legumain): 34 nM
Molecule: Cbz-Ala-Ala-[AzaAsn]-{CH:CH‑COOBzl} [AEPI-3 (Cbz-Ala-Ala-AzaAsn-CH=CH-COOBzl)]

From patent publication US20090175873A1 (Scripps Research, published 2009)
